Changes are numbered by the printed parent chain. Numbers in names are those of the source.
B1: Y653L, I777A (protein)
chain: MDYKDKALNDLRNVYADFDSLPLDFRQILIKDRATLLQKEDVEKKILERQEDAKKYAEYLKQSEIPERISLPNIKRHKGVSISFEETSEDMVLEPRPFIFDGLNIRCFRRETIFSLKNKILNMVKESSSFKNVSRQSVSFMYFKIFNKGKVIASTKSVNIYEDKIDERLEDLCNNFDDVLKKIIDVTYGYESLFVSETYSYVIFYAKSIYFPQPRCVNNWGNNIPNILTFDSFKLFTANKNNVSCIKQCSRFLWQKDFNTLEEMIEYKNGNICIVTPQLHINDVRDIKSFNDIRLYSESPIKTFSVIDNTITYLFYFKEHLGVIFNITKSRHDRRVTKFSPLSKFSDVKNITVCFDIESYFDPEKESNQVNIPFICCASIIYNKVIGNIVDFEGRDCVAQMIEYVVDICGELNISSVELIAHNGGGYDFHYILSSMYNPAAIKNILIRNNSFISFNFAHDGVKFSVKDSYSFLLCSLANASKAFLNEETFKKTDFPHHDLKTADDLYKVYKEWSSVNTEINHVVEKEKLLITSEHIVNFTKNDKSKTLIEWSKDYCRNDVLVLSKVWLEFKNAVEDIFNCELVDQTMTLAGLSYKLFQANMPFDVELRHPNKEDYFNMREALIGGRCISVNGIYKDVLCLDVKSLYPASMAFLDQPYGSFKRVSSRPKDELGIYYVRVTPNRNNKSNFFPIRSHNKITYNNFEESTYIAWYTNVDIDIGLSEGHNIEYIPFDSYGNIGYSWSKKGKIFEKYIKDVLYKLKIKYEKQNNKVKRNVIKAIMNSLWGKFAQKWVNFEYFIKSEDDIDFESEEAYKIWDTDFMLIKKIKESTYSSKPIQNGVFTLSWARYHMKSIWDAGAKEGAECIYSDTDSIFVHKEHFKKNAKFMLNGLKVPIIGSEVGQLELECEFDKLLCAGKKQYMGFYTYFQDGKPCIKEKKRFKGIPSNYIIPELYAHLLSGADKEAKIQFLKFRREWGSVKGYIENKTVKAT
B2: I777K, V872I (protein)
chain: B1 chain with L653Y, A777K, V872I
B3: I777K, K934W (protein)
chain: B1 chain with L653Y, A777K, K934W
B4: I777A, K934W (protein)
chain: B1 chain with L653Y, K934W
B5: I777A, L900S (protein)
chain: B1 chain with L653Y, L900S
B6: I777K, F968T (protein)
chain: B1 chain with L653Y, A777K, F968T
B7: I775A, K934W (protein)
chain: B1 chain with L653Y, I775A, A777I, K934W
B8: I777A, V872I (protein)
chain: B1 chain with L653Y, V872I
B9: I775A, L909F (protein)
chain: B1 chain with L653Y, I775A, A777I, L909F
B10: I777K, F968C (protein)
chain: B1 chain with L653Y, A777K, F968C
B11: I775A, L900S (protein)
chain: B1 chain with L653Y, I775A, A777I, L900S
B12: V774I, L900S (protein)
chain: B1 chain with L653Y, V774I, A777I, L900S
B13: I775A, F871Y (protein)
chain: B1 chain with L653Y, I775A, A777I, F871Y
B14: V774I, F871Y (protein)
chain: B1 chain with L653Y, V774I, A777I, F871Y
B15: I777K, L909F (protein)
chain: B1 chain with L653Y, A777K, L909F
B16: I777K, F871Y (protein)
chain: B1 chain with L653Y, A777K, F871Y
B17: M779L, F968C (protein)
chain: B1 chain with L653Y, A777I, M779L, F968C
B18: I777K, W790L, K934W (protein)
chain: B1 chain with L653Y, A777K, W790L, K934W
B19: I777A, F871Y (protein)
chain: B1 chain with L653Y, F871Y
B20: Y653L, I777K (protein)
chain: B1 chain with A777K
B21: V774I, F968C (protein)
chain: B1 chain with L653Y, V774I, A777I, F968C
B22: I775A, F968T (protein)
chain: B1 chain with L653Y, I775A, A777I, F968T
B23: I777A, L909F (protein)
chain: B1 chain with L653Y, L909F
B24: M779L, K934W (protein)
chain: B1 chain with L653Y, A777I, M779L, K934W

tested on: p1-encoded leu2 (Q180*); test: Large-scale p1 fluctuation tests of p1-encoded leu2 (Q180*), per-base substitution rate; format: cell-based, S. cerevisiae; details: per-base substitution rate, p1-encoded leu2 (Q180*), large-scale fluctuation test
Description: All three TP-DNAP1 libraries were screened through small scale p1 fluctuation tests in a metastable S. cerevisiae strain, OR-Y24. OR-Y24 contains w.t. p1 and recombinant p1 that lacks w.t. TP-DNAP1, and instead, encodes a standardized fluorescence reporter of p1 copy number (Table 1), and a disabled version of the LEU2 selection marker (leu2 (Q180*)). As described previously (Ravikumar et al., 2014), leu2 (Q180*) contains a C→T mutation at base 538 in LEU2 at a site permissive to all single point mutants that generate missense mutations. Reversion to functional LEU2 can be detected on medium lacking leucine.
Large-scale fluctuation tests of p1-encoded leu2 (Q180*) were performed to precisely determine per-base substitution rates for individually cloned or isolated TP-DNAP1 variants. Large-scale p1 fluctuation tests are performed similarly to small-scale p1 fluctuation tests, with several modifications. First, large-scale p1 fluctuation tests were typically performed with 36-48 replicates. For highly error-prone TP-DNAP1s obtained from later rounds of screening, fewer replicates (3-16) were used, which is sufficient for similar precision (Foster et al., 2006). Second, p1 copy number was determined by the flow cytometry method, described below. Third, cell titers were measured for each fluctuation test to estimate the average number of cells per culture. Cell resuspensions were diluted and plated on solid SC-UH medium, and colony counts were determined after incubation at 30° C. for 2-3 days. Alternatively, cell resuspensions were diluted and subject to an event-count measurement via flow cytometry. Fourth, inoculums of highly error-prone TP-DNAP 1 s occasionally contained pre-existing mutants, despite the 1:10,000 dilution, so mutant frequencies were estimated by plating pre-cultures on solid SC-UHLW, pH 5.8 medium. Plates were incubated for 2-3 days, in parallel with cultures grown for fluctuation tests. Pre-culture mutant titers were counted to estimate the number of replicates in the fluctuation test expected to contain pre-existing mutants (n). Revertants were counted from all replicates of the fluctuation tests, counts were sorted, and n replicates with the highest counts were omitted from calculations.
To calculate per-base substitution rates, fluctuation data were analyzed by the maximum likelihood method, implemented using newton.LD.plating in rSalvador 1.7 (Zheng, 2017). Phenotypic mutation rates were calculated by normalizing to the average number of cells per culture. Phenotypic mutation rates were divided by the measured p1 copy number and by the number of ways leu2 (Q180*) can revert to LEU2 (2.33 for the ochre codon) to yield per-base substitution rates. 95% confidence intervals were similarly scaled by these factors. All data related to large-scale p1 fluctuation tests are fully described in Table 2.

Molecule | Mutation rate (s.p.b.)
B1 | 2.02 × 10^−8 s.p.b.
B2 | 2.59 × 10^−8 s.p.b.
B3 | 2.71 × 10^−7 s.p.b.
B4 | 1.86 × 10^−7 s.p.b.
B5 | 1.36 × 10^−7 s.p.b.
B6 | 3.19 × 10^−7 s.p.b.
B7 | 3.59 × 10^−8 s.p.b.
B8 | 1.34 × 10^−10 s.p.b.
B9 | 2.46 × 10^−8 s.p.b.
B10 | 6.67 × 10^−7 s.p.b.
B11 | 2.53 × 10^−8 s.p.b.
B12 | 1.10 × 10^−7 s.p.b.
B13 | 4.73 × 10^−8 s.p.b.
B14 | 1.64 × 10^−7 s.p.b.
B15 | 2.22 × 10^−7 s.p.b.
B16 | 1.35 × 10^−6 s.p.b.
B17 | 3.13 × 10^−10 s.p.b.
B18 | 2.02 × 10^−7 s.p.b.
B19 | 2.57 × 10^−7 s.p.b.
B20 | 9.59 × 10^−8 s.p.b.
B21 | 1.14 × 10^−7 s.p.b.
B22 | 7.29 × 10^−8 s.p.b.
B23 | 1.07 × 10^−7 s.p.b.
B24 | 2.85 × 10^−9 s.p.b.
